Results taken from the nanobody polyreactivity screen of Harvey et al. (2022).

Assay: yeast display, Sf9 membrane polyspecificity reagent, FACS + sequencing; frameworks hold sequencing errors
Summary of the method: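 Polyreactivity labels are assigned by the sorting gate from which each nanobody was recovered. The gates were low and high (top ~1%), set on anti-HA fluorescence for expression and streptavidin fluorescence for reagent binding. Before sorting, galactose-induced (36–48 hours) yeast display cells were stained for 1 hour at 4 °C with 10% biotinylated, detergent-solubilized Sf9 membrane reagent.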

| Sequence | polyreactivity (PSR sort gate) |
| --- | --- |
| QVQLVESGGGLVKAGGSLRLSCAASGFIFRYYAMGWYRQAPGKERELVAAITSTGRTYYADSVKGRFTISRDNAKNTVYLQMNSLKPEDTAVYYCAKRSYPWGQGTQVTVSS | low polyreactivity |
| QVQLVESGGGLVKAGGSLRLSCAASGFIFVYYAMGWYRQAPGKERELVARISWRGGRTYYADSVKGRFTISRDNAKNTVYLQMNSLKPEDTAVYYCNADFWNSHVWYDYWGQGTQVTVSS | high polyreactivity |
| QVQLVESGGGLVKAGGSLRLSCAASGFTFYLNAMGWSRQAPGKERELVAGISWRGGRTYYADSVKGRFTISRDNAKITVYVQLNSLKPEDTAVYYCAAVTYSFQKTDYYWGQGTQVTVSA | high polyreactivity |
| QVQLVESGGGLVKAGGSLRLSCAASGINFYRYAMGWYRQAPGKERELVAAITWSGVSTSYADSVKGRFTISRDNAKKTVYLQMNSLKPEDTAVYYCNTDPGTLYGDMDSWGQGTQVTVSS | low polyreactivity |
| QVQLVESGGGLVKAGGSLRLSCAASGITFSYYTMGWYRQAPGKEREFVATISQSSGSTYYADSVKGRFTISRDNAKNTVYLQMNSLKPEDTAVYYCNARRDYEWESWNVDDDYWGQGTQVTVSS | high polyreactivity |
| QVQLVESGGGLVKAGGSLRLSCAASGLISYPYSMGWYRQSPWKERELVAAITSRGTSTYYADSVKGRFTISRDNAKYTVYLHMNSLKPEDTAVYYCNAVVWRSRVDYYYWGQGTQVTVSS | high polyreactivity |
| QVQLVESGGGLVKAGGSLRLSCAASGNTFGRNVMGWYRPAPGKERELVAAINRGGSTTYADSVKGRFTISRDNAKNTVYLQMNSLKPEDTAVYYCNAEIRGQSYRFDYWGQGTQVTVSS | high polyreactivity |
| QVQLVESGGGLVKAGGSLRLSCAASGRIFYGYAMGWYRQAPGKERELVAAITRSGTSTYYADSVKGRFTISRDNAKNTVYLQMHSLKPEDTAVYYCAAVERSLRSPYGDYGYWGHGTQVTVSS | high polyreactivity |
| QVQLVESGGGLVKAGGSLRLSCAASGRIFYTNDMGWYSQAPGKERELVATISSTGSTNYADSVKGRFTISRDNAKNTVYLEMNSLKPEDTAVYYCAADRSYFLRCIIYDYWGQGTQVTVSS | low polyreactivity |
| QVQLVESGGGLVKAGGSLRLSCAASGRTFLRNAMGWYRQAPGKERELVATITRGGSTYYADSVKGRFTISRDNAKNSVYLQMNSLKPEDTAVYYCAKDITGGFRRPDYGYWGQGTQVTVSS | low polyreactivity |
| QVQLVESGGGLVKAGGSLRLSCAASGSIFGGYAMGCYRQAPGKERELVAAISYRGASTYYADSVKWRFTISRDNAKNTVYLQMNSLKPEDTAVYYCAVAARTRARVLYGYDYWGQGTQVTVSS | low polyreactivity |
| QVQLVESGGGLVKAGGSLRLSCAASGSNFNPYAMGWYRQEPGKQRELVAAITGSGRSTYNSDSVKGRFTISRDNAKNTVYLEMNSLKPEDTAVYYCNRARILVWSKYGYWGQGTQVTVSS | high polyreactivity |
| QVQLVESGGGLVKAGGSLRLSCAASGSSFSSYAMGWYREAPGKEWELVAAISGGGNTYYADSVKGRFTISSDNAKNTVYLQMNSLKPEDTAVYYCNKSRLEPEYGYWGQGTQVTVSS | low polyreactivity |
| QVQLVESGGGLVKAGGSLRLSCAASGSTFDWYAMGWYRQAPGKERELVAAITWRGDSTNYADSVKGRFTISRDNAKNTVYLQMNSLKPEDTAVYYCATGKTYRDDYWGQGTQVTVSS | high polyreactivity |
| QVQLVESGGGLVKAGGSLRLSCAASGSTFPYYAMGWYRQAPGTEREFVAAISSSGGSTYYADSVKGRFTISRDNAKNTVYLQMNSLKPEDTAVYYFAAQGARRNYYRYGTYTNRRYDYWGQGTQVTVSS | high polyreactivity |
| QVQLVESGGGLVKAGGSLRLSCAASGSTFRRYAMGWYRLAPGKERELVAAITIGGSTYYADSVKGRFTISRDNAKNTVKLKMNSLKPEDTAVYSCNAGKTYLGDYWGQGTQVTVSS | high polyreactivity |
| QVQLVESGGGLVKAGGSLRLSCAASGSTFYAYAMGWSRQAPGKERELVAAISSSGGSTYYADSVKGRFTISRDNAKNTVYLQMNSLKPEDTAVYYCAAYDSVQIYWILGFDYWGQGSQVTVSS | low polyreactivity |
| QVQLVESGGGLVKAGGSLRLSCAASGYTYPLYAMGWYRQAPGKEMELVADINIGGASTYYADSVKGRFTISRDNAKNTVYLQMNSLKPEDTAVYDCAKEYYDGYFPTFDYDYWGQGTQVTVSS | low polyreactivity |
| QVQLVESGGGLVKAGGSLRLSCAATGRIFEYNTMGWYRQAPGKERELVAAITGGTGSTYYADSVKGRFTISRDNAKNTVYLKMNSLKPEDTAVYYCAADYTSPAFYSSFDYWGQGTQVTVSS | low polyreactivity |
| QVQLVESGGGLVKAGGSLRLSCADSGSIFWYYTMGRYRQAPGKEREFVAAISWSGGGSTYYADSVKGRFTISRENAKYTVYLQMNSLKPEDTAVYYCNGDWTSYGFVTRLDYWGHGTQVTVSS | low polyreactivity |
| QVQLVESGGGLVKAGGSLRLSCAPSGSTFKSYSMGWYRQAPGIECELVAAITSGGRTYYADSVKGRFTISRDNAKNTVYLQMNSLKPEDTAVYYCAALRVQQVKSYYYWGQGTQVTVSS | high polyreactivity |
| QVQLVESGGGLVKAGGSLRLSCASSGSTFVGNAMGWYRQAPGKERELVAAISVNDGTTYYADSVKGRFTISRDNAKNTVYLQMNSLKPEDTAVDYCNVKRYGCRSDYWGQGTQVTVSS | high polyreactivity |

| Sequence | polyreactivity (PSR sort gate) |
| --- | --- |
| QVQLVESGGGLVKAGGSLRLSCDSSGGTFSTYAMGWYRQAPGKERELVAAISWRGGSTYYAVSVKGRFTISRDNAKNTVYLQMNSLKPEYNAVYYCAAYYYRGWLLYWDEMYYWGQGTQVTVSS | high polyreactivity |
| QVQLVESGGGLVKAGGSLRLSFAASGRNFRRNAMGWYRQAPGRERELVAAISSSGGSTYYADSVKGRFTISRDNAKNTVYLQMNSLKPEDTAVYYCAVRSRFGYYWGQGTQVTVSS | high polyreactivity |
| QVQLVESGGGLVKAGGSLRLSSAASGSTFERYAMGWYRQAPGNERELVAAINWSGGGTYYADSVKGRFTISRDTAKNTVYLQMNSLKPEDTAVYYCAADSGTVVFSLWWYEYYYWGQGNQVTVSS | low polyreactivity |
| QVQLVESGGGLVKEGGSLRLSCAASGSIYYENTMGWYRQAPGKERELVASISCGGSTYADSVKGRFTISRDNAKNSVYLQMYSLKAEDSAVYYCNADSSTEYDYWGQGTQVTVSS | low polyreactivity |
| QVQLVESGGGLVLAGGSLRLSCAASGIIFKIYAMGWFRQAPGKEMELVADITSVGSTKYADSVKGRFTISRDNAKNTVYLQMNSLKPEDTAVYYCATDWVTSHDDDYWGQGTQVTVSS | low polyreactivity |
| QVQLVESGGGLVLAGGSLRLSCAASGRIFSYYAMGWYRQAPGQERELVAAISWNGGSTYYADSVKGRFTISRDNAKNTVYLQMNSLKPEDTAVYYCAVLPHYEYDYWGQGTQVTVSS | high polyreactivity |
| QVQLVESGGGLVLAGGSLRLSCAASGRIYRIYNKGWYRQAPGKERELVAAISKSGGGTYYADSVKGRFTISRDNAKNTVYLQMNSLKPEDTAVYYCTTANWDRKSRVFRQSTVGYGYWGQGTQVTVSS | high polyreactivity |
| QVQLVESGGGLVLAGGSLRLSCAASGSISTNYAMGWYRQAPGKERELVAAISDSSGSTYYADSVKGRFTISRDNAKNIVYLQMNSLKPEDTAVYYCNADSQGGRDVNYDYEYYYWGQGTQVTVSS | low polyreactivity |
| QVQLVESGGGLVLAGGSLRLSCAASGYTFTIYAMGWYIQGPGKERELVSAITGRGGRTNYADSVKGRFTISRDNAKNTVYLQMNSLKPEDTAVYYCNAVTKVVYHGPYGYDYWGQGTQVTVSS | high polyreactivity |
| QVQLVESGGGLVLAGGSRRLSCASSGSTFPLYTMGWYRQAPGKERELVAAINYGGTSTYYADSVKGRFTFSRVKAKNTVYLQRNSLKPEDTAVYYCAAERYFLYLCRKFGYWGQGTQVTVSW | high polyreactivity |
| QVQLVESGGGLVLAGGTLRISCAASGSIFYRNTMGWYRLAPVKERELVAAITRGGGRTYYADSVKARFTISRDTAKNTVFLQMNSLKPEDSAVYYCAVQAFSHTSSRMDYWGQGSQVTVSS | high polyreactivity |
| QVQLVESGGGLVLARGTLRLSCPASGFTFSRYAMGWYRQAPGKERELVAAISRTGGRTYYADSVKGRFTISRDNAKNTVYLQMNSLKPVDTAVYYCARLPVHSHLRQTYAMEYWGQGTQVTVSS | high polyreactivity |
| QVQLVESGGGLVNAGGSLRLSCAASGRITGDNAMVWYRQAPGKVRELVAAISTSRRTYYADSVKGRFTISRDNAKNTVYLQMNSLKPEDTAVYYCNAFGSNGGAMDYWGQGTQLTVSS | high polyreactivity |
| QVQLVESGGGLVNAGGTLRLSCAASGSTFYRNAMGWYRQAPGKERELVATITYSGGSTYYADSVKGRFTNSRDNAKNTVYLQMNSLKPEDTAVYYCAVRRLRRNFVSYYYWGQGTQVTVSS | high polyreactivity |
| QVQLVESGGGLVPAGGSLRLSCAASGFTFRRYDMGWYRHAPGKERELVAAISWSSDGTYYADSVKGRFTISRDNAKNTVYLQINSLKPEDTAVYYCAARWGTKSGRYDYWGQGTQVTVSS | high polyreactivity |
| QVQLVESGGGLVPAGGSLRLSCAASGRIFGWYAMGWYRQAPGKEREFVAAITVTGGSTYYADSVKGRFTISRDNAKNTVYLQMNSLKPEDTAVYYCAADRWYTRTGFDYWGQGTQVTVSS | low polyreactivity |
| QVQLVESGGGLVPAGGSLRLSCAASGRTFIKYAMGWYRQAPGKERELVAAISRSAGSTYYADSVKGRFTISRDNAKNTVYLQMNSLKPEDTAVYYCNAVTSSYLRFDYWGQGTQVSVSS | high polyreactivity |
| QVQLVESGGGLVQAAGSLRLICAASGLTFGANDMGWSRQAPGTERELVAAIDWSGGSTFFADSVKGRFTISRDNAKNTVYLQMNTLKPEDTAVYYCAALGFGYPYPEYDSWGQGTQVTVSA | low polyreactivity |
| QVQLVESGGGLVQAAGSLRLSCAASGFTFYSNVMGWYRQAPGKERELVAAITGRGSRTYYEDSVNGRFTISRDNAKNTVYLQMNSLKTEDTPVYYCAARYTNYGGYYWGQGTQVTVSS | high polyreactivity |
| QVQLVESGGGLVQAAGSLRLSCAASGFTIAHYAMGRYSHAPGKERELVAGISRSGGSTYYADSVKGRFTISRDNAKNTVYLQMNILKPEDTAVYYCATVTYLKRVRYQSGYDSWGQGTQVTVSS | low polyreactivity |
| QVQLVESGGGLVQAAGSLRLSCAASGITFGLYTMGWYRQAPGKERELVAAISWSGGGTYYADSVKGRFTISRDNAKNTVYLQMNSLKPEDTAVYYCAAPVRGSYPYSVGVDYWGQGTQVTVSS | high polyreactivity |
